Assay [1] has as its target T1, recombinant human TIM3 extracellular domain, 6-His C-ter-tagged (ACROBiosystems) (Homo sapiens, UniProt Q8TDQ0).
T1 construct: TIM3 (HAVCR2), human, recombinant extracellular domain; the methods describe the His-tagged protein; For BLI only 'recombinant TIM3' is said; also called HAVCR-2; HAVCR2; source: bought: ACROBiosystems; not shown: His6, C-terminal, kept
In words: AlphaScreen or HTRF; dose-response of antibodies (human IgG1 in concentrated, dosed HEK293 supernatant) on recombinant TIM3 or TIGIT at 0.6 ng/µl; 1 h incubation, then donor and acceptor sensors 1 h; EC50 from a fit in GraphPad Prism. To be noted: one partner purified.

Assay [2] has as its target T1, recombinant human TIM3 extracellular …. The assay can be described thus: BLI; Octet RED96, antibody loaded from supernatant on anti-human Fc (AHC) biosensors, recombinant TIM3 or TIGIT in solution; PBS, 30°C, 1000 rpm; association 300 sec, dissociation 300 sec; global 1:1 fit. To be noted: one partner purified.
The target of assay [3] is T2, SIRPα with C-terminal Flag tag, overexpressed in HEK293 cells (UniProt P78324).
T2 construct: SIRPα, transmembrane target, synthetic gene; source: HEK293, transiently transfected (pcDNA3.1), cells fixed and permeabilized; not shown: Flag, C-terminal, kept
The assay can be described thus: flow cytometry on cells; HEK293 transiently transfected with the Flag-tagged target, fixed and permeabilized, incubated with raw antibody supernatants 1 h at room temperature; APC anti-human IgG and PE anti-Flag; % APC+PE+ cells. To be noted: partners not purified.

In assay [4] the target is T3, TIT-H52H5 Human TIGIT Protein, His Tag, active dimer (ACROBiosystems) (Homo sapiens, UniProt Q495A1).
T3 construct: TIGIT, human, recombinant extracellular domain; the methods describe the His-tagged protein; For BLI only 'recombinant TIGIT' is said; also called VSIG9; T-cell immunoreceptor with Ig and ITIM domains; source: bought: ACROBiosystems
T3 sequence (Q495A1 22-141): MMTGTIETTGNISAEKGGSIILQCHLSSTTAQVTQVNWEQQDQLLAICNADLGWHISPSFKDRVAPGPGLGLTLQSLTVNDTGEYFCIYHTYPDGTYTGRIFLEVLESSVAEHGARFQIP
In words: AlphaScreen or HTRF; dose-response of antibodies (human IgG1 in concentrated, dosed HEK293 supernatant) on recombinant TIM3 or TIGIT at 0.6 ng/µl; 1 h incubation, then donor and acceptor sensors 1 h; EC50 from a fit in GraphPad Prism. To be noted: one partner purified.

Assay [5] addresses T3, TIT-H52H5 Human TIGIT Protein, His Tag, …. The assay can be described thus: BLI; Octet RED96, antibody loaded from supernatant on anti-human Fc (AHC) biosensors, recombinant TIM3 or TIGIT in solution; PBS, 30°C, 1000 rpm; association 300 sec, dissociation 300 sec; global 1:1 fit. To be noted: one partner purified.

B1: Tim3.18, human IgG1 format (antibody, V domains shown)
VH: QLQLQESGPGLVKPSETLSLTCTVSGGSISSRSYYWGWIRQPPGKGLEWIGSIYYSGFTYYQPSLKSRVTISVDTSKNQFSLKLSSVTAADTAVYYCATGGPYGDYAHWFEPWGQGTLVTVSS
VL: not shown
notes: VH of Tim3.18; constant domains of unmodified human IgG1 heavy chain, from the plasmid pTrioz-hIgG1 (InvivoGen); VL of Tim3.18; constant domain of the light chain as encoded by pTrioz-hIgG1; IgG1; VH and VL by gene synthesis; also called 7KQL; source: HEK293, transiently transfected, supernatant (concentrated); also a large batch produced and purified by SinoBiological
As to B1, the EC50 in assay [1] was 150 pM. Besides, in assay [2], the Kd worked out at 1010 pM, the dissociation rate constant (koff) was 0.000219 s⁻¹ and the kon came to 216000 M⁻¹ s⁻¹.

B2: CC-95251, human IgG1 format (antibody, V domains shown)
VH: QVQLVQSGAEVKKPGASVKVSCKASGYTFRGYGISWVRQAPGQGLEWMGWISAYGGETNYAQKLQGRVTMTTDTSTSTAYMELRSLRSDDTAVYYCAREAGSSWYDFDLWGRGTLVTVSS
VL: DIQMTQSPSSVSASVGDRVTITCRASQGISSWLAWYQQKPGKAPKLLIYAASNLQSGVPSRFSGSGSGTDFTLTISSLQPEDFATYYCQQGASFPITFGGGTKVEIK
notes: constant domains of unmodified human IgG1 heavy chain, from the plasmid pTrioz-hIgG1 (InvivoGen); constant domain of the light chain as encoded by pTrioz-hIgG1; VH and VL by gene synthesis; also called 7ST5; source: HEK293, transiently transfected, supernatant
With B2, the binding result in assay [3] is on record as “binds”.

B3: M6903, human IgG1 format (antibody, V domains shown)
VH: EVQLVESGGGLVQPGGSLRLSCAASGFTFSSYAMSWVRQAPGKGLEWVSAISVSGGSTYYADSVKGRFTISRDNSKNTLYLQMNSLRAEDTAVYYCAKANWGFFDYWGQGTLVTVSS
VL: QSALTQPRSVSGSPGQSVTISCTGTSSDVGGYNYVSWYQQHPGKAPKLMIYDVSKRPSGVPDRFSGSKSGNTASLTISGLQAEDEADYYCSSYADSVVFGGGTKVTVL
notes: VH of M6903; constant domains of unmodified human IgG1 heavy chain, from the plasmid pTrioz-hIgG1 (InvivoGen); VL of M6903; constant domain of the light chain as encoded by pTrioz-hIgG1; IgG1; VH and VL by gene synthesis; also called 6TXZ; source: HEK293, transiently transfected, supernatant (concentrated); also a large batch produced and purified by SinoBiological
With B3, the EC50 in assay [1] is 193 pM. In assay [2], the Kd is 200 pM, the koff was determined as 3.06e-05 s⁻¹ and the on-rate (kon) came out at 153000 M⁻¹ s⁻¹.

B4: Tiragolumab, human IgG1 format (antibody, V domains shown)
VH: EVQLQQSGPGLVKPSQTLSLTCAISGDSVSSNSAAWNWIRQSPSRGLEWLGKTYYRFKWYSDYAVSVKGRITINPDTSKNQFSLQLNSVTPEDTAVFYCTRESTTYDLLAGPFDYWGQGTLVTVSS
VL: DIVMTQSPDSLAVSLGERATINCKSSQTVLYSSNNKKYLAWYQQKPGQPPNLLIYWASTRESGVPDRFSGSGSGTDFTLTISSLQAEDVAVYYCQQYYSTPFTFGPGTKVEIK
notes: VH of Tiragolumab; constant domains of unmodified human IgG1 heavy chain, from the plasmid pTrioz-hIgG1 (InvivoGen); VL of Tiragolumab; constant domain of the light chain as encoded by pTrioz-hIgG1; IgG1; VH and VL by gene synthesis; also called 8JEO; source: HEK293, transiently transfected, supernatant (concentrated)
For B4, the half-maximal effective concentration (EC50) in assay [4] stood at 3140 pM. Moreover, in assay [5], the dissociation constant (Kd) was 681 pM, the koff was 0.000279 s⁻¹ and the kon was 410000 M⁻¹ s⁻¹.

B5: MG1131, human IgG1 format (antibody, V domains shown)
VH: EVQLVQSGAEVKKPGASVKVSCKASGYTFTSYYMHWVRQAPGQGLEWMGIINPSGGSTSYAQKFQGRVTMTRDTSTSTVYMELSSLRSEDTAVYYCASRSGSGWFGALDYWGQGTLVTVSS
VL: not shown
notes: VH of MG1131; constant domains of unmodified human IgG1 heavy chain, from the plasmid pTrioz-hIgG1 (InvivoGen); VL of MG1131; constant domain of the light chain as encoded by pTrioz-hIgG1; IgG1; VH and VL by gene synthesis; also called 7VYT; source: HEK293, transiently transfected, supernatant (concentrated)
In the case of B5, in assay [4], the EC50 came to 489 pM. Besides, in assay [5], the dissociation constant (Kd) was 189 pM, the dissociation rate constant (koff) was 7.43e-05 s⁻¹ and the kon was 393000 M⁻¹ s⁻¹.
